Assay results: paper PMC2726289

Molecular target: peptide from Dynamin1 proline-rich domain
Assay: not stated; monomeric GRAF1 SH3 domain with a peptide from the Dynamin1 proline-rich domain; method in Figure S2D or the supplement, not shown

B1: Monomeric GRAF1 SH3 domain (domain or fragment)
chain: TPFRKAKALYACKAEHDSELSFTAGTVFDNVHPSQEPGWLEGTLNGKTGLIPENYVEFL
- Kd: 106 µM
